# Data as given in patent US20210309720A1 (MIT, published 2021).
# T1: IL8 (UniProt P10145 28-99, limits assumed)
# T1 sequence (looked up): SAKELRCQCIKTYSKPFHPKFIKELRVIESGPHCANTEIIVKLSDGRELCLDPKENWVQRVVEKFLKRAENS
# T2: CCL25 (UniProt O15444 24-150)
# T2 sequence (looked up): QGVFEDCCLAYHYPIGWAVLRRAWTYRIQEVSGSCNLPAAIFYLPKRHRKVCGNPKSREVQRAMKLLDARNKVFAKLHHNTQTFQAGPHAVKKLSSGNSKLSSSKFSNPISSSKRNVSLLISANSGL
# Key:
# [1] = target: T1, IL8; test: MicroScale Thermophoresis, 5 nM NT647-labeled receptor against a gradient of ligand, 25 C
# Procedure: (§1) The affinity of QTY modified cytokine receptor fused with Fc of IgG for their respective native ligands was measured using MicroScale Thermophoresis (MST). Changes in thermophoretic movement for labeled proteins upon ligand-binding were recorded and plotted as a function of ligand concentration.
# (§2) MicroScale Thermophoresis (MST) is an optical method detecting changes in thermophoretic movement and TRIC of the protein-attached fluorophore upon ligand binding. Active labelled proteins contribute to the thermophoresis signal upon ligand binding. […] Herein ligand binding experiments were carried out with 5 nM NT647-labeled protein in 1×PBS, 10 mM DTT buffer with different concentration of arginine, against a gradient of respective ligands on a Monolith NT.115 pico instrument at 25° C. Synthesized receptors were labeled with Monolith NT™ 2nd generation protein labeling kit RED-NHS (NanoTemper Technologies) so as to obtain unique fluorescent signals. MST time traces were recorded and analyzed to obtain the highest possible signal-to-noise levels and amplitudes, >5 Fnorm units. The recorded fluorescence was plotted against the concentration of ligand, and curve fitting was performed using the Kd fit formula derived from the law of mass action. For clarity, binding graphs of each independent experiment were normalized to the fraction bound (0=unbound, 1=bound). […]
# [2] = target: T2, CCL25; test: as above
# Procedure: as §1, §2
Binder,Kd [1] [nM],Kd [2] [nM]
"CXCR2-QTY Fc (Fc fusion, labeled with NT647 fluorescent dye (Monolith NT 2nd generation protein labeling kit RED-NHS), also called Fc fusion QTY CXCR2 variant receptor protein) MEDFNMESDSFEDFWKGEDLSNYSYSSTLPPFLLDAAPCEPESLEINKYYTTTTYAQTYQQSQQGNSQTMQTTQYSRVGRSVTDTYQQNQAQADQQYAQTQPTWAASKVNGWIFGTFLCKTTSQQKETNYYSGTQQQACTSTDRYLAIVHATRTLTQKRYLVKYTCQSTWGQSQQQAQPTQQYRRTVYSSNVSPACYEDMGNNTANWRMQQRTQPQSYGYTQPQQTMQYCYGFTLRTLFKAHMGQKHRAMRTTYATTQTYQQCWQPYNQTQQADTLMRTQVIQETCERRNHIDRAQDATETQGTQHSCQNPQTYAYTGQKFRHGLLKILAIHGLISKDSLPKDSRPSFVGSSSGHTSTTLTETSQVAPAHHHHHHHHHHGSKLVDPRGPTIKPCPPCKCPAPNLLGGPSVFIFPPKIKDVLMISLSPIVTCVVVDVSEDDPDVQISWFVNNVEVHTAQTQTHREDYNSTLRVVSALPIQHQDWMSGKEFKCKVNNKDLPAPIERTISKPKGSVRAPQVYVLPPPEEEMTKKQVTLTCMVTDFMPEDIYVEWTNNGKTELNYKNTEPVLDSDGSYFMYSKLRVEKKNWVERNSYSCSVVHEGLHNHHTTKSFSRTPGK",60.3,–
"CCR9-QTY Fc (Fc fusion, labeled with NT647 fluorescent dye (Monolith NT 2nd generation protein labeling kit RED-NHS), also called Fc fusion QTY CCR9 variant receptor protein) MTPTDFTSPIPNMADDYGSESTSSMEDYVNFNFTDFYCEKNNVRQFASHYQPPQYWQTYTTGAQGNSQTTQTYWYCTRVKTMTDMYQQNQATADQQYQTTQPYWATAAADQWKFQTFMCKTTNSMYKMNYYSCTQQTMCTSTDRYTATAQAMRAHTWREKRQQYSKMTCYTTWTQAAAQCTPETQYSQIKEESGIAICTMVYPSDESTKQKSATQTQKTTQGYYQPYTTMACCYTTTTHTQTQAKKSSKHKAQKTTTTTQTTYTQSQYPYNCTQQTQTTDAYAMFISNCATSTNTDTCYQTTQTTAYYHSCQNPTQYTYTGERFRRDLVKTLKNLGCISQAQWVSFTRREGSLKLSSMLLETTSGALSLTETSQVAPAHHHHHHHHHHTETSQVAPAHHHHHHHHHHGSKLVDPRGPTIKPCPPCKCPAPNLLGGPSVFIFPPKIKDVLMISLSPIVTCVVVDVSEDDPDVQISWFVNNVEVHTAQTQTHREDYNSTLRVVSALPIQHQDWMSGKEFKCKVNNKDLPAPIERTISKPKGSVRAPQVYVLPPPEEEMTKKQVTLTCMVTDFMPEDIYVEWTNNGKTELNYKNTEPVLDSDGSYFMYSKLRVEKKNWVERNSYSCSVVHEGLHNHHTTKSFSRTPGK",–,37.2
